The values below come from patent US20130171156.

Substitutions are numbered along the chain they refer to.

B1: “converted” BMP-1-3 protein (protein)
chain: AATSRPERVWPDGVIPFVIGGNFTGSQRAVFRQAMRHWEKHTCVTFLERTDEDSYIVFTYRPCGCCSYVGRRGGGPQAISIGKNCDKFGIVVHELGHVVGFWHEHTRPDRDRHVSIVRENIQPGQEYNFLKMEPQEVESLGETYDFDSIMHYARNTFSRGIFLDTIVPKYEVNGVKPPIGQRTRLSKGDIAQARKLYKCPACGETLQDSTGNFSSPEYPNGYSAHMHCVWRISVTPGEKIILNFTSLDLYRSRLCWYDYVEVRDGFWRKAPLRGRFCGSKLPEPIVSTDSRLWVEFRSSSNWVGKGFFAVYEAICGGDVKKDYGHIQSPNYPDDYRPSKVCIWRIQVSEGFHVGLTFQSFEIERHDSCAYDYLEVRDGHSESSTLIGRYCGYEKPDDIKSTSSRLWLKFVSDGSINKAGFAVNFFKEVDECSRPNRGGCEQRCLNTLGSYKCSCDPGYELAPDKRRCEAACGGFLTKLNGSITSPGWPKEYPPNKNCIWQLVAPTQYRISLQFDFFETEGNDVCKYDFVEVRSGLTADSKLHGKFCGSEKPEVITSQYNNMRVEFKSDNTVSKKGFKAHFFSDKDECSKDNGGCQQDCVNTFGSYECQCRSGFVLHDNKHDCKEAGCDHKVTSTSGTITSPNWPDKYPSKKECTWAISSTPGHRVKLTFMEMDIESQPECAYDHLEVFDGRDAKAPVLGRFCGSKKPEPVLATGSRMFLRFYSDNSVQRKGFQASHATECGGQVRADVKTKDLYSHAQFGDNNYPGGVDCEWVIVAEEGYGVELVFQTFEVEEETDCGYDYMELFDGYDSTAPRLGRYCGSGPPEEVYSAGDSVLVKFHSDDTITKKGFHLRYTSTKFQDTLHSRK
As for B1, the “in vitro processing (enzyme activity)” value is given as “which properties were not exhibited with the “converted” BMP-1-3 protein” with type IV collagen and “which properties were not exhibited with the “converted” BMP-1-3 protein” with calmodulin, P0DP23.

B2: placental BMP-1-3 protein (protein)
chain: B1 chain with L373Q
B2: the “in vitro processing (enzyme activity)” value was “processed calmodulin and type IV collagen” in the data set with type IV collagen; “processed calmodulin and type IV collagen” with calmodulin, P0DP23.
